Experimental data published in paper PMC5748159.
Read-outs that look alike come from different tables or passages of the source.

How the values were obtained:
Test in all cases: SEC
[1] = biological target: Human S100A7 (psoriasin), reduced, with Cys47 and Cys96 as free thiols (human) (UniProt P31151)
[2] = biological target: S100A7(C47S)(C96S) homodimer (human) (UniProt P31151)
[3] = biological target: S100A7(C47S)(C96S) homodimer (human) (UniProt P31151); remark: listed apart in the source
[4] = biological target: Human S100A7 (psoriasin), oxidized, with Cys47–Cys96 disulfide bond (human) (UniProt P31151)
[5] = biological target: S100A7(C47A)(C96A) homodimer (human) (UniProt P31151)
[6] = biological target: S100A7(C47A)(C96A) homodimer (human) (UniProt P31151); remark: listed apart in the source

Substance: Human S100A7 (psoriasin), reduced, with Cys47 and Cys96 as free thiols (from UniProt P31151 1-101) (natural protein)
- stoichiometry N [1]: 2

Substance: S100A7(C47S)(C96S) homodimer (from UniProt P31151 1-101) (natural protein)
- stoichiometry N [2]: 2
- stoichiometry N [3]: 2

Substance: Human S100A7 (psoriasin), oxidized, with Cys47–Cys96 disulfide bond (from UniProt P31151 1-101) (natural protein)
- stoichiometry N [4]: 2

Substance: S100A7(C47A)(C96A) homodimer (from UniProt P31151 1-101) (natural protein)
- stoichiometry N [5]: 2
- stoichiometry N [6]: 2
